In this assay the target is SciP (Caulobacter crescentus).

B1: C. crescentus Lon (enzyme)
chain: MSELRTLPVLPLRDIVVFPHMVVPLFVGRDKSVRALEEVMRGDKQILLVTQKNSADDDPAPGDIFEVGVLATVLQLLKLPDGTVKVLVEGKARAAVVSFTDQESYYEAQIGEVSEDDGAGPEAEALSRAVVEQFENYVKLNKKVPPEALASIPQIAEPGKLADSIAAHLSVKIGDKQNLLEIFDVVKRLEKVFALMEGEISVLQVEKKIRSRVKRQMEKTQREYYLNEQMKAIQRELGDPDDARDELIDLEKRIKKTKLSKEARTKAESELKKLRNMSPMSAESTVVRNYLDWLLSIPWGKAKTKKIDLVESEGILDADHYGLEKVKERILEYLAVQARTNSLKGPILCLVGPPGVGKTSLGKSIAKATGREFVRMSLGGVRDEAEIRGHRRTYIGSMPGKVVQSMKKAKTTNAFVLLDEIDKMGSDYRGDPASALLEVLDPSQNSTFGDHYLEVDYDLSQVMFVTTANSLNMPQPLLDRMEIIRIPGYTEDEKLEIAKRHILPKLAKDHGLKPAEFIVPDKAIRDLIRYYTREAGVRSLERELGALARKTVRDLAREKVASITIDDERLAKYAGVKKYRYGETDEVDQVGIVTGLAWTEFGGDILTIEAVKMPGKGRMQITGNLKDVMKESIAAANSYVRSRALQFGIKPPVFEKTDVHIHVPDGATPKDGPSAGIAMALAMVSVLTGIPIRKDIAMTGEITLRGRVTAIGGLKEKLLAALRSGVKTVLIPQENEKDLADVPQTVKDGLEIIPVSTVDEVLKHALTGPLTPVEWNEAEEPITTSAKKDDGDSDAMLTH
B1 came in with a half-life of purified SciP (0.5 µM) degraded by purified Lon (0.5 µM) in vitro of 12 min.
